In assay [1] the target is T1, monkey 4-1BB-his protein (monkey).
T1 construct: extracellular domain; Bought protein; also called extracellular domain of monkey-derived 4-1BB protein
Description: ELISA, coated monkey 4-1BB-his; Ab 0.08 ug/ml. How it is done: (§1) The purified immunogen A (4-1BB-hFc), monkey 4-1BB-his, and mouse 4-1BB-his obtained in Example 1 [for the preparation method, see step 1 of Example 1, preparation of immunogen A], of which the extracellular domain of monkey-derived 4-1BB protein (purchased from ACRO biosystems), the extracellular domain of mouse 4-1BB protein (purchased from sino biological) or other immune detection point proteins respectively were diluted with PBS to a final concentration of 1.0 μg/mL, then added with […] per well to 96-well ELISA plate. It was sealed with plastic film and incubated at 4° C. overnight. The next day, the plate was washed twice with the plate-washing solution [PBS containing 0.01% (v/v) Tween20] and blocking solution [PBS containing 0.01% (v/v) Tween 20 and 1% (v/v) BSA] was added and blocked at room temperature for 2 hours. The blocking solution was discarded and 100 μl of the purified 4-1BB antibody obtained in Example 2 was added per well. After incubated at 37° C. for 2 hours, the plate was washed 3 times with a plate-washing solution [PBS containing 0.01% (v/v) Tween20]. A secondary antibody (purchased from Sigma) labeled with HRP (horseradish peroxidase) was added, and after incubated at 37° C. for 2 hours, the plate was washed 3 times with a plate-washing solution [PBS containing 0.01% (v/v) Tween20]. 100 μl of TMB substrate was added per well. After incubated for 30 minutes at room temperature, 100 μl of stop buffer (1.0N HCl) was added per well. The A450 nm values were read using an ELISA plate reader (SpectraMax 384plus, Molecular Device).

In assay [2] the target is T1, monkey 4-1BB-his protein. Description: ELISA: monkey 4-1BB-his coated at 1.0 µg/mL, antibody titrated, HRP secondary antibody, OD450. How it is done:
as §1

For assay [3], the target named is T1, monkey 4-1BB-his protein. Kind of assay: ELISA, coated monkey 4-1BB-his; Ab 2 ug/ml. How it is done: as §1
The target in assay [4] is T1, monkey 4-1BB-his protein. Kind of assay: ELISA, coated monkey 4-1BB-his; Ab 0.0001 ug/ml. How it is done:
as §1

Assay [5] concerns the target T2, mouse 4-1BB protein (extracellular domain) (mouse, UniProt P20334 24-187).
T2 construct: extracellular domain; also called mouse 4-1BB-his; mouse 4-1BB-hFc protein
T2 sequence (looked up): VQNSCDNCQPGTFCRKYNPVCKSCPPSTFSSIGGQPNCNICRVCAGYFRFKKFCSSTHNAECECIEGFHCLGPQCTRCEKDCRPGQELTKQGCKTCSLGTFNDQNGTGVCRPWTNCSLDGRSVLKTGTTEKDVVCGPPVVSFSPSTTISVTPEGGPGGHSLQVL
Kind of assay: ELISA, coated mouse 4-1BB; Ab 0.016 ug/ml. How it is done:
as §1

In assay [6] the target is T2, mouse 4-1BB protein (extracellular …). Kind of assay: ELISA, coated mouse 4-1BB; Ab 10 ug/ml. How it is done: as §1
Assay [7] has the same target. Description: ELISA, coated mouse 4-1BB; Ab 0.08 ug/ml. On the procedure:
as §1

The target in assay [8] is T1, monkey 4-1BB-his protein. Kind of assay: ELISA, coated monkey 4-1BB-his; Ab 10 ug/ml. On the procedure:
as §1

In assay [9] the target is T2, mouse 4-1BB protein (extracellular …). Kind of assay: ELISA, coated mouse 4-1BB; Ab 2 ug/ml. How it is done:
as §1

The target is the same in assay [10]. Description: ELISA: mouse 4-1BB protein coated at 1.0 µg/mL (target by Table 10; the legend paragraph 119 says monkey 4-1BB-hFc), antibody titrated, HRP secondary antibody, OD450. How it is done:
as §1

The target of assay [11] is T1, monkey 4-1BB-his protein. Description: ELISA, coated monkey 4-1BB-his; Ab 0.0006 ug/ml. How it is done:
as §1

Assay [12] deals with T2, mouse 4-1BB protein (extracellular …). Kind of assay: ELISA, coated mouse 4-1BB; Ab 0.4 ug/ml. On the procedure:
as §1

Assay [13] deals with T3, monkey 4-1BB on CHOK1 cells (monkey).
T3 construct: whole, on cells; also called CHOK1-c4-1BB
Description: FACS on CHOK1-c4-1BB cells, Alexa 488 secondary antibody, average fluorescence intensity. An excerpt:
The pIRES plasmid carrying the full-length gene of monkey-derived […] (the preparation method is the same as the preparation method of the pCpC vector carrying the human-derived IgG Fc fragment (hFc) in “Preparation of immunogen A” of the step (1) in Example 1, in which the database accession number of the amino acid sequence of the extracellular region of monkey 4-1BB protein (Phe19-Thr239) is G7PSE7) was transfected into CHOK1 cell line to obtain CHOK1 stable transfected cell line containing monkey 4-1BB (herein referred to as CHOK1-c4-1BB stable cell line). The CHOK1-h4-1BB stable cell line and the CHOK1-c4-1BB stable cell line were expanded and cultivated to 90% confluence in T-75 cell culture flasks. The medium was exhausted, and washed twice with HBSS buffer (Hanks Balanced Salt Solution, purchased from Invitrogen), and then the cells were treated and collected with enzyme-free cell dissociation solution (Versene solution, purchased from Life Technology). The cells were washed twice with HBSS buffer, and after cell counting, the cells were diluted with HBSS buffer to 2×10⁶ cells per ml, and 1% goat serum blocking solution was added, the percentage being the mass percentage. It was incubated on ice for 30 minutes, and then washed twice with HBSS buffer by centrifugation. The collected cells were suspended in FACS buffer (HBSS containing 1% BSA, the percentage was the mass percentage) to 2×10⁶ cells/mL, and 100 μl per well was added to a 96-well FACS reaction plate. The purified 4-1BB antibody test sample obtained in Example 2 was added, 100 microliters per well and incubated on ice for 2 hours. […] It was washed three times with FACS buffer by centrifugation, and 100 μl of fixative [4% (v/v) paraformaldehyde] per well was added to suspend cells, and washed twice with FACS buffer after 10 minutes by centrifugation. The cells were suspended with 100 microliters of FACS buffer, and the results were detected and analyzed with FACS (FACS Calibur, purchased from BD).

Assay [14] concerns the target T2, mouse 4-1BB protein (extracellular …). Kind of assay: ELISA, coated mouse 4-1BB; Ab 0.0032 ug/ml. How it is done:
as §1

B1: 57B3D10 (antibody, V domains shown)
VH: QVQLQESGPGLVKPSETLSLTCTVSGGSISSYYWSWIRQPPGKGLEWIGYIYYSGSTNYNPSLKSRVTISVDTSKSQFSLKLTSVTAADTAVYYCAKDSDYYGSGSYSYWYFDLWGRGTLVTVSS
VL: EIVMTQSPATLSVSPGERATLSCRASQSVSSNLAWYQQKPGQAPRLLIYGASTRAPGIPARFSGSGSGTEFTLTISSLQSEDFAVYYCQQYNNWPLTFGGGTKVEIK
notes: also called 4-1BB fully human antibody 57B3D10
In the case of B1, the OD450 nm in the assay with monkey 4-1BB-his protein [1] amounted to 2.03 OD450 nm; with monkey 4-1BB-his protein [3] it was 2.47 OD450 nm; with monkey 4-1BB-his protein [4] it was 0.08 OD450 nm; in [5] it was 0.16 OD450 nm; in assay [6], 0.24 OD450 nm; in assay [7] it was 0.14 OD450 nm. Further, the OD450 nm with monkey 4-1BB-his protein [8] is 2.42 OD450 nm; in [9], 0.1 OD450 nm; with monkey 4-1BB-his protein [11], 0.1 OD450 nm; in assay [12], 0.28 OD450 nm; in [14] it was 0.2 OD450 nm. Further, the “EC50 (read off the curve)” value was around 0.03 µg/mL in the assay with monkey 4-1BB-his protein [2] and around 0.1 µg/mL in assay [13]. Further, in [10], the binding result was “no binding (tested: 10 µg/ml)”.

B2: 113F6C6 (antibody, V domains shown)
VH: QVQLVESGGGVVQPGRSLRLSCAASGLTFSSYGMHWVRQAPGKGLEWVAVIWYDGSNKYYADSVKGRFTISRDNSKNTLYLQMNSLRAEDTAVYYCAREEVLWFGELSYNYYYGMDVWGQGTTVTVSS
VL: DIQMTQSPSSLSASVGDRVTITCRASQGISNYLAWYQQKPGKVPKLLIYAASTLQSGVPSRFSGSGSGTDFTLTISSLQPEDVATYYCQKYNSVPLTFGGGTKVEIK
notes: also called 4-1BB fully human antibody 113F6C6; 113F6F6
Regarding B2, the OD450 nm in the assay with monkey 4-1BB-his protein [1] was determined as 1.58 OD450 nm; with monkey 4-1BB-his protein [3], 2.2 OD450 nm; in the assay with monkey 4-1BB-his protein [4], 0.07 OD450 nm; in assay [5] it was 0.05 OD450 nm; in assay [6] it was 0.25 OD450 nm; in [7], 0.05 OD450 nm. Further, the OD450 nm amounted to 2.36 OD450 nm with monkey 4-1BB-his protein [8]; 0.18 OD450 nm in assay [9]; 0.08 OD450 nm in the assay with monkey 4-1BB-his protein [11]; 0.08 OD450 nm in assay [12]; 0.05 OD450 nm in assay [14]. Moreover, the “EC50 (read off the curve)” value is around 0.05 µg/mL with monkey 4-1BB-his protein [2] and around 0.1 µg/mL in assay [13]. In addition, the binding result in assay [10] is given as “no binding (tested: 10 µg/ml)”.

The values above are taken from patent US20200347144A1 (SHANGHAI HYAMAB BIOTECH, published 2020).
